Consider three sequences from the supplement of paper PMC5998384.

The test system of data set [1] is HeLa Kyoto. The data set is described as follows: solubility change mitosis vs G1/S (difference of NP-40 vs SDS log2 ratios) (log2 ratio difference); higher = more soluble in mitosis.
For data set [2], the system named is HeLa Kyoto. In words: thermal stability score vs G1/S (z-score of summed log2 fold changes over temperatures); higher = more thermally stable than in G1/S.
Data set [3] has as its system HeLa Kyoto. The data set is described as follows: melting temperature (median over replicates), in situ; higher = more thermally stable.
Data set [4] concerns HeLa Kyoto. In words: solubility in G1/S (NP-40 vs SDS abundance) (log2 ratio); higher = more soluble. Particulars: cell cycle stage: G1/S.
[5] abbreviates: cell cycle stage: early G1 (4.5 h after nocodazole release).
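Throughout, for melting temperature (median over replicates), in situ: HeLa Kyoto cells synchronized by double thymidine or nocodazole block, proteins quantified by TMT10plex mass spectrometry, three independent biological replicates.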
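Throughout, for solubility change mitosis vs G1/S (difference of NP-40 vs SDS log2 ratios): synchronized HeLa Kyoto cells (double thymidine block for G1/S, nocodazole release for mitosis), protein amounts in NP-40 versus SDS lysates quantified by mass spectrometry, three biological replicates.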
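Throughout, for solubility in G1/S (NP-40 vs SDS abundance): HeLa Kyoto cells arrested at G1/S by double thymidine block, proteins quantified by TMT10plex mass spectrometry in mild NP-40 versus SDS extracts, three biological replicates.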
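Throughout, for thermal stability score vs G1/S (z-score of summed log2 fold changes over temperatures): synchronized HeLa Kyoto cells, proteins quantified by TMT10plex mass spectrometry, three biological replicates, mitosis taken 0.5 h after nocodazole release, G1/S directly after double thymidine block.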

On to “MAEAEGESLESWLNKATNPSNRQEDWEYIIGFCDQINKELEGPQIAVRLLAHKIQSPQEWEALQALTVLEACMKNCGRRFHNEVGKFRFLNELIKVVSPKYLGDRVSEKVKTKVIELLYSWTMALPEEAKIKDAYHMLKRQGIVQSDPPIPVDRTLIPSPPPRPKNPVFDDEEKSKLLAKLLKSKNPDDLQEANKLIKSMVKEDEARIQKVTKRLHTLEEVNNNVRLLSEMLLHYSQEDSSDGDRELMKELFDQCENKRRTLFKLASETEDNDNSLGDILQASDNLSRVINSYKTIIEGQVINGEVATLTLPDSEGNSQCSNQGTLIDLAELDTTNSLSSVLAPAPTPPSSGIPILPPPPQASGPPRSRSSSQAEATLGPSSTSNALSWLDEELLCLGLADPAPNVPPKESAGNSQWHLLQREQSDLDFFSPRPGTAACGASDAPLLQPSAPSSSSSQAPLPPPFPAPVVPASVPAPSAGSSLFSTGVAPALAPKVEPAVPGHHGLALGNSALHHLDALDQLLEEAKVTSGLVKPTTSPLIPTTTPARPLLPFSTGPGSPLFQPLSFQSQGSPPKGPELSLASIHVPLESIKPSSALPVTAYDKNGFRILFHFAKECPPGRPDVLVVVVSMLNTAPLPVKSIVLQAAVPKSMKVKLQPPSGTELSPFSPIQPPAAITQVMLLANPLKEKVRLRYKLTFALGEQLSTEVGEVDQFPPVEQWGNL [GGA3]”, for which, in the data set on HeLa Kyoto [1], the “solubility change mitosis (log2)” value was -0.218. Further, the thermal stability score in the data set on HeLa Kyoto [2] (setting [5]) stood at 1.01; in the data set on HeLa Kyoto [2] (cell cycle stage: mitosis), 0.468. For the same sequence, the melting temperature amounted to 50.1 °C with HeLa Kyoto [3] (cell cycle stage: G1/S) and 50.7 °C in the data set on HeLa Kyoto [3] (cell cycle stage: mitosis). Besides, the “solubility in G1/S (log2)” value in the data set on HeLa Kyoto [4] is 0.445.
For the sequence “MAEAGDAALSVAEWLRALHLEQYTGLFEQHGLVWATECQGLSDTRLMDMGMLLPGHRRRILAGLLRAHTSPAPAPRPTPRPVPMKRHIFRSPPVPATPPEPLPTTTEDEGLPAAPPIPPRRSCLPPTCFTTPSTAAPDPVLPPLPAKRHLAELSVPPVPPRTGPPRLLVSLPTKEEESLLPSLSSPPQPQSEEPLSTLPQGPPQPPSPPPCPPEIPPKPVRLFPEFDDSDYDEVPEEGPGAPARVMTKKEEPPPSRVPRAVRVASLLSEGEELSGDDQGDEEEDDHAYEGVPNGGWHTSSLSLSLPSTIAAPHPMDGPPGGSTPVTPVIKAGWLDKNPPQGSYIYQKRWVRLDTDHLRYFDSNKDAYSKRFISVACISHVAAIGDQKFEVITNNRTFAFRAESDVERKEWMQALQQAMAEQRARARLSSAYLLGVPGSEQPDRAGSLELRGFKNKLYVAVVGDKVQLYKNLEEYHLGIGITFIDMSVGNVKEVDRRSFDLTTPYRIFSFSADSELEKEQWLEAMQGAIAEALSTSEVAERIWAAAPNRFCADCGAPQPDWASINLCVVICKRCAGEHRGLGAGVSKVRSLKMDRKVWTETLIELFLQLGNGAGNRFWAANVPPSEALQPSSSPSTRRCHLEAKYREGKYRRYHPLFGNQEELDKALCAAVTTTDLAETQALLGCGAGINCFSGDPEAPTPLALAEQAGQTLQMEFLRNNRTTEVPRLDSMKPLEKHYSVVLPTVSHSGFLYKTASAGKLLQDRRAREEFSRRWCVLGDGVLSYFENERAVTPNGEIRASEIVCLAVPPPDTHGFEHTFEVYTEGERLYLFGLESAEQAHEWVKCIAKAFVPPLAEDLLARDFERLGRLPYKAGLSLQRAQEGWFSLSGSELRAVFPEGPCEEPLQLRKLQELSIQGDSENQVLVLVERRRTLYIQGERRLDFMGWLGAIQKAAASMGDTLSEQQLGDSDIPVIVYRCVDYITQCGLTSEGIYRKCGQTSKTQRLLESLRQDARSVHLKEGEQHVDDVSSALKRFLRDLPDGLFTRAQRLTWLEASEIEDEEEKVSRYRELLVRLPPVNRATVKALISHLYCVQCFSDTNQMNVHNLAIVFGPTLFQTDGQDYKAGRVVEDLINHYVVVFSVDEEELRKQREEITAIVKMRVAGTASGTQHAGDFICTVYLEEKKAETEQHIKVPASMTAEELTLEILDRRNVGIREKDYWTCFEVNEREEAERPLHFAEKVLPILHGLGTDSHLVVKKHQAMEAMLLYLASRVGDTKHGMMKFREDRSLLGLGLPSGGFHDRYFILNSSCLRLYKEVRSQRPWSGAPETSHRPEKEWPIKSLKVYLGVKKKLRPPTCWGFTVVHETEKHEKQQWYLCCDTQMELREWFATFLFVQHDGLVWPSEPSRVSRAVPEVRLGSVSLIPLRGSENEMRRSVAAFTADPLSLLRNV [ARAP1]”, the “solubility change mitosis (log2)” value in the data set on HeLa Kyoto [1] was -0.0622. Moreover, the thermal stability score stood at 0.748 in the data set on HeLa Kyoto [2] (setting [5]) and 0.922 in the data set on HeLa Kyoto [2] (cell cycle stage: mitosis). Also, the melting temperature came out at 48.7 °C with HeLa Kyoto [3] (cell cycle stage: G1/S) and 49.1 °C in the data set with HeLa Kyoto [3] (cell cycle stage: mitosis). In addition, in the data set on HeLa Kyoto [4], the “solubility in G1/S (log2)” value is -0.0593.
As to “MAEAVFHAPKRKRRVYETYESPLPIPFGQDHGPLKEFKIFRAEMINNNVIVRNAEDIEQLYGKGYFGKGILSRSRPSFTISDPKLVAKWKDMKTNMPIITSKRYQHSVEWAAELMRRQGQDESTVRRILKDYTKPLEHPPVKRNEEAQVHDKLNSGMVSNMEGTAGGERPSVVNGDSGKSGGVGDPREPLGCLQEGSGCHPTTESFEKSVREDASPLPHVCCCKQDALILQRGLHHEDGSQHIGLLHPGDRGPDHEYVLVEEAECAMSEREAAPNEELVQRNRLICRRNPYRIFEYLQLSLEEAFFLVYALGCLSIYYEKEPLTIVKLWKAFTVVQPTFRTTYMAYHYFRSKGWVPKVGLKYGTDLLLYRKGPPFYHASYSVIIELVDDHFEGSLRRPLSWKSLAALSRVSVNVSKELMLCYLIKPSTMTDKEMESPECMKRIKVQEVILSRWVSSRERSDQDDL [TSEN2]”, the “solubility change mitosis (log2)” value in the data set with HeLa Kyoto [1] is -0.177. In addition, the thermal stability score with HeLa Kyoto [2] (setting [5]) was found to be 0.825; in the data set on HeLa Kyoto [2] (cell cycle stage: mitosis) it was 0.75. The melting temperature in the data set on HeLa Kyoto [3] (cell cycle stage: G1/S) turned out to be 49.7 °C; in the data set on HeLa Kyoto [3] (cell cycle stage: mitosis), 49.9 °C. Moreover, the “solubility in G1/S (log2)” value in the data set with HeLa Kyoto [4] came to 0.0298.
